In PMC11702601 one finds Kd data, which are given here for 1 substance.

What all share (assay): MST
Experiment [1] addresses T2 gp006-6×His (phage T2).
The target of experiment [2] is T2 gp006^I20A-6×His (phage T2).
Experiment [3] has as its target T2 gp009-6×His (phage T2).
Experiment [4] addresses T2 gp057-6×His (phage T2).

For bNACHT11 (natural protein), the Kd was determined as 80 nM in experiment [1], 351 nM in experiment [2], 269 nM in experiment [3] and 149 nM in experiment [4].

As usually defined, the Kd is the concentration at which binding is half-saturated.
